First the molecules themselves.
B1: 2B.1.3.10 (antibody, human IgG1, kappa, V domains shown)
VH: EVQLVESGGGLVQPGGSLRLSCAASGFPFTSQGISWVRQAPGKGLEWVGRTHLGDGSTNYADSVKGRFTISADTSKNTAYLQMNSLRAEDTAVYYCARTYGIYDTYDKYTEYVMDYWGQGTLVTVSS
VL: DIQMTQSPSSLSASVGDRVTITCRASQDVDTSLAWYKQKPGKAPKLLIYSASFLYSGVPSRFSGSGSGTDFTLTISSLQPEDFATYYCQQSTGHPQTFGQGTKVEIKR
B2: 2B.1.3.8 (antibody, human IgG1, kappa, V domains shown)
VH: B1 VH with Q32L, T105I, D107E
VL: B1 VL
B3: 2B.1.3.4 (antibody, human IgG1, kappa, V domains shown)
VH: B1 VH with P28T, Q32T, T105I, D107G, K108G
VL: B1 VL
B4: 2B.1.3.12 (antibody, human IgG1, kappa, V domains shown)
VH: B1 VH with Q32T, K108M
VL: B1 VL
B5: 2B.1.3.6 (antibody, human IgG1, kappa, V domains shown)
VH: B1 VH with P28T, Q32T, K108E
VL: B1 VL
B6: 2B.1.3.2 (antibody, human IgG1, kappa, V domains shown)
VH: B1 VH with P28T, Q32T, K108N
VL: B1 VL
B7: 2B.1.1 (antibody, human IgG1, kappa, V domains shown)
VH: B1 VH with P28T, Q32T, T51Y, H52W, L53A, G54W, T105L, D107V, K108D
VL: B1 VL
B8: 2B.1.88 (antibody, human IgG1, kappa, V domains shown)
VH: B1 VH with P28T, Q32T, T51I, H52W, L53M, G54F, D55T, T105L, D107V, K108D
VL: B1 VL
B9: 2B.1.95 (antibody, human IgG1, kappa, V domains shown)
VH: B1 VH with P28T, Q32T, T51L, H52I, L53F, G54F, D55T, T105L, D107V, K108D
VL: B1 VL
B10: 2B.1.73 (antibody, human IgG1, kappa, V domains shown)
VH: B1 VH with P28T, Q32T, T51M, H52I, L53F, G54Y, D55N, T105L, D107V, K108D
VL: B1 VL
B11: 2B.1.32 (antibody, human IgG1, kappa, V domains shown)
VH: B1 VH with P28T, Q32T, T51W, H52V, L53G, G54F, D55T, T105L, D107V, K108D
VL: B1 VL
B12: 2B.1.74 (antibody, human IgG1, kappa, V domains shown)
VH: B1 VH with P28T, Q32T, T51Y, L53P, G54F, D55R, T105L, D107V, K108D
VL: B1 VL
B13: 2B.1.14 (antibody, human IgG1, kappa, V domains shown)
VH: B1 VH with P28T, Q32T, T51L, H52W, L53Y, G54F, T105L, D107V, K108D
VL: B1 VL
B14: 2B.1.50 (antibody, human IgG1, kappa, V domains shown)
VH: B1 VH with P28T, Q32T, T51L, H52N, L53F, G54Y, D55S, T105L, D107V, K108D
VL: B1 VL
B15: 2B.1.81 (antibody, human IgG1, kappa, V domains shown)
VH: B1 VH with P28T, Q32T, T51V, H52N, L53N, G54F, D55Y, T105L, D107V, K108D
VL: B1 VL
B16: 2B.1.82 (antibody, human IgG1, kappa, V domains shown)
VH: B1 VH with P28T, Q32T, T51I, H52N, L53F, G54F, D55S, T105L, D107V, K108D
VL: B1 VL
B17: 2B.1.25 (antibody, human IgG1, kappa, V domains shown)
VH: B1 VH with P28T, Q32T, T51W, L53P, G54W, D55M, T105L, D107V, K108D
VL: B1 VL
B18: 2B.1.71 (antibody, human IgG1, kappa, V domains shown)
VH: B1 VH with P28T, Q32T, T51V, H52W, L53M, G54F, T105L, D107V, K108D
VL: B1 VL
B19: 2B.1.35 (antibody, human IgG1, kappa, V domains shown)
VH: B1 VH with P28T, Q32T, T51W, L53P, G54F, D55R, T105L, D107V, K108D
VL: B1 VL
B20: 2B.1.52 (antibody, human IgG1, kappa, V domains shown)
VH: B1 VH with P28T, Q32T, T51F, H52S, T105L, D107V, K108D
VL: B1 VL
B21: 2B.1.55 (antibody, human IgG1, kappa, V domains shown)
VH: B1 VH with P28T, Q32T, T51V, H52D, L53V, G54F, D55W, T105L, D107V, K108D
VL: B1 VL
B22: 2B.1.86 (antibody, human IgG1, kappa, V domains shown)
VH: B1 VH with P28T, Q32T, T51L, H52S, L53F, G54W, D55T, T105L, D107V, K108D
VL: B1 VL
B23: 2B.1.9 (antibody, human IgG1, kappa, V domains shown)
VH: B1 VH with P28T, Q32T, T51Y, L53P, G54Y, D55L, T105L, D107V, K108D
VL: B1 VL
B24: 2B.1.28 (antibody, human IgG1, kappa, V domains shown)
VH: B1 VH with P28T, Q32T, T51F, H52W, L53A, G54W, D55S, T105L, D107V, K108D
VL: B1 VL
B25: 2B.1.30 (antibody, human IgG1, kappa, V domains shown)
VH: B1 VH with P28T, Q32T, T51V, H52S, L53F, G54F, D55S, T105L, D107V, K108D
VL: B1 VL
B26: 2B.1.49 (antibody, human IgG1, kappa, V domains shown)
VH: B1 VH with P28T, Q32T, T51L, H52S, L53F, G54F, D55S, T105L, D107V, K108D
VL: B1 VL
B27: 2B.1.72 (antibody, human IgG1, kappa, V domains shown)
VH: B1 VH with P28T, Q32T, T51V, L53P, G54F, D55E, T105L, D107V, K108D
VL: B1 VL
B28: 2B.1.33 (antibody, human IgG1, kappa, V domains shown)
VH: B1 VH with P28T, Q32T, T51Y, L53P, G54F, D55H, T105L, D107V, K108D
VL: B1 VL
B29: 2B.1.94 (antibody, human IgG1, kappa, V domains shown)
VH: B1 VH with P28T, Q32T, T51L, H52V, L53F, G54F, D55S, T105L, D107V, K108D
VL: B1 VL
B30: 2B.1.44 (antibody, human IgG1, kappa, V domains shown)
VH: B1 VH with P28T, Q32T, T51W, H52W, L53S, G54W, D55G, T105L, D107V, K108D
VL: B1 VL
B31: 2B.1.20 (antibody, human IgG1, kappa, V domains shown)
VH: B1 VH with P28T, Q32T, T51L, H52D, L53V, G54F, D55W, T105L, D107V, K108D
VL: B1 VL
B32: 2B.1.65 (antibody, human IgG1, kappa, V domains shown)
VH: B1 VH with P28T, Q32T, T51Y, H52N, L53A, G54Y, D55T, T105L, D107V, K108D
VL: B1 VL
B33: 2B.1.93 (antibody, human IgG1, kappa, V domains shown)
VH: B1 VH with P28T, Q32T, T51I, H52D, L53N, G54Y, D55W, T105L, D107V, K108D
VL: B1 VL
B34: 2B.1.80 (antibody, human IgG1, kappa, V domains shown)
VH: B1 VH with P28T, Q32T, T51Y, H52W, L53A, G54F, D55S, T105L, D107V, K108D
VL: B1 VL
B35: 2B.1.38 (antibody, human IgG1, kappa, V domains shown)
VH: B1 VH with P28T, Q32T, T51F, H52W, L53A, G54Y, T105L, D107V, K108D
VL: B1 VL
B36: 2B.1.78 (antibody, human IgG1, kappa, V domains shown)
VH: B1 VH with P28T, Q32T, T51L, H52S, L53F, G54Y, D55S, T105L, D107V, K108D
VL: B1 VL

Numbering of substitutions follows the chain as printed.

The first experiment has as its target FGFR2-IIIb (human) (UniProt P21802). Kind of experiment: SPR, IgG.
Broadly, the Kd is the constant that tells how readily two partners part at equilibrium. Higher therefore signals weaker binding. For the molecule B1, the Kd is 2.9 nM.
B2 had a dissociation constant Kd of 1.4 nM.
B3: the equilibrium dissociation constant (Kd) was 5.8 nM.
Molecule B4 came in with a dissociation constant Kd of 3 nM.
With B5, the dissociation constant (Kd) stood at 5.9 nM.
In turn, B6 registered a Kd of 6.6 nM.

For another experiment, the target named is FGFR3-IIIb (human). The experiment in a line: SPR. (In general: Surface plasmon resonance follows binding to a sensor surface in real time, without labels.)
FGFR3-IIIb (human), sequence (chain, as listed by the source limits assumed): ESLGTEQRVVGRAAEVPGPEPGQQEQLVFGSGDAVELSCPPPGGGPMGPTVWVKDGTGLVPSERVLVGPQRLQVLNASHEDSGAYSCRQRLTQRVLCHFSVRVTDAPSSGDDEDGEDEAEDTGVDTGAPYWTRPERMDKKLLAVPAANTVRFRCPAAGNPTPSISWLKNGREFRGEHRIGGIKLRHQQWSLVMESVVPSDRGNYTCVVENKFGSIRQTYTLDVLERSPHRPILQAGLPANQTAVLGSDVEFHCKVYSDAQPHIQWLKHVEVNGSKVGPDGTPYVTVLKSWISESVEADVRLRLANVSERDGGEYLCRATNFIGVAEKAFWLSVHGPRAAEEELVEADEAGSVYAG
Turning to B4, the dissociation constant (Kd) stood at 0.5 nM.

The target in a further experiment is FGFR2-IIIb (human) (UniProt P21802). The experiment in a line: SPR.
FGFR2-IIIb (human), sequence (P21802 other isoform, or with tags, fused parts or gaps limits assumed): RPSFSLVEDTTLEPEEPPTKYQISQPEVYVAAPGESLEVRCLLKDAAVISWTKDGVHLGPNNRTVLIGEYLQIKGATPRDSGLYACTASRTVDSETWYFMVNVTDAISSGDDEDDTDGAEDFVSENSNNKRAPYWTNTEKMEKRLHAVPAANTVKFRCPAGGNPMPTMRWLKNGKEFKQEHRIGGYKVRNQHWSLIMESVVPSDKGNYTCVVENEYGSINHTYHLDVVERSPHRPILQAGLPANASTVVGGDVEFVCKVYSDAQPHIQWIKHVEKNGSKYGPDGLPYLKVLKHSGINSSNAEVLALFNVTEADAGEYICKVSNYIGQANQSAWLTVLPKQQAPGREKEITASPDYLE
Molecule B7 came in with a Kd of 0.29 nM.
B4 registered a Kd of 3 nM.

The target is the same in a further experiment. Kind of experiment: blocking ELISA: FGFR2-IIIb-Fc captured on an anti-human Fc plate, antibody titrated, FGF-7 (with heparin) is the blocked ligand, bound FGF-7 read as OD450. In general terms: ELISA stands for enzyme-linked immunosorbent assay.
B1 came in with an IC50 (read off the curve) of 2 nM.
The molecule B4 registered an IC50 (read off the curve) of 2 nM.

Another experiment deals with FGFR3-IIIb (human). The experiment in a line: SPR (Biacore T100), IgG captured by anti-human Fc, FGFR flowed.
As for B1, the equilibrium dissociation constant (Kd) came out at 0.11 nM.
The molecule B8 gave a dissociation constant Kd of 0.05 nM.
For B9, the Kd turned out to be 0.19 nM.
Consider B7, for which the Kd amounted to 0.09 nM.
B10 returned a Kd of 0.09 nM.
Same read-out and setting: next, B11: 0.06 nM; B4: 0.5 nM.

The next experiment concerns the target FGFR2-IIIb (human) (UniProt P21802). Described as above.
B1: the dissociation constant (Kd) is 2.9 nM.
In turn, B12 displayed a dissociation constant Kd of 1.4 nM.
The molecule B13 yielded a Kd of 1.6 nM.
B14 displayed a dissociation constant Kd of 2 nM.
On to B15, for which the Kd came out at 2.1 nM.
With B16, the Kd is 4.9 nM.
For the molecule B17, the equilibrium dissociation constant (Kd) was 2.3 nM.
Still for that read-out and setting: under B18 stands 1.6 nM; under B8, 0.64 nM.
As to B19, the equilibrium dissociation constant (Kd) is 9.4 nM.
For the molecule B20, the dissociation constant (Kd) was 3.9 nM.
Same read-out and setting: next, B9: 1.8 nM; B21: 5.9 nM.
Molecule B7 gave a Kd of 0.29 nM.
B10 registered a Kd of 1.4 nM.
Regarding B22, the Kd amounted to 1.3 nM.
On the same count and under the same terms, under B23 stands 1.4 nM; under B24, 1.8 nM; under B11, 1.2 nM.
As to B25, the Kd worked out at 4.1 nM.
The molecule B4 registered a Kd of 3 nM.
With B26, the equilibrium dissociation constant (Kd) is 1.3 nM.
On to B27, for which the Kd came to 3.5 nM.
In the case of B28, the equilibrium dissociation constant (Kd) was found to be 15 nM.
For the molecule B29, the dissociation constant Kd turned out to be 3.1 nM.
Molecule B30 came in with a dissociation constant (Kd) of 3.6 nM.
In turn, B31 registered a dissociation constant Kd of 1.2 nM.
For the molecule B32, the dissociation constant (Kd) is 2.7 nM.
The molecule B33 displayed a Kd of 5.1 nM.
B34 registered a Kd of 17 nM.
With B35, the dissociation constant (Kd) turned out to be 1.1 nM.
The molecule B36 showed a Kd of 3.2 nM.

In a further experiment the target is FGFR3-IIIb (human). Kind of experiment: blocking ELISA: FGFR3-IIIb-Fc captured on an anti-human Fc plate, antibody titrated, FGF-1 (with heparin) is the blocked ligand, bound FGF-1 read as OD450.
In turn, B1 displayed an IC50 (read off the curve) of 1 to 2 nM.
For B4, the IC50 (read off the curve) was 1 to 2 nM.

Source of the values: patent publication US20160244525A1.
